The values below are quoted from earlier work in publication PMC5811392.

The target in series [1] is p53 (Homo sapiens) (UniProt P04637).
The target in series [2] is p53 DBD (Homo sapiens) (UniProt P04637).
Chain of p53 DBD (Homo sapiens) (P04637 94-312): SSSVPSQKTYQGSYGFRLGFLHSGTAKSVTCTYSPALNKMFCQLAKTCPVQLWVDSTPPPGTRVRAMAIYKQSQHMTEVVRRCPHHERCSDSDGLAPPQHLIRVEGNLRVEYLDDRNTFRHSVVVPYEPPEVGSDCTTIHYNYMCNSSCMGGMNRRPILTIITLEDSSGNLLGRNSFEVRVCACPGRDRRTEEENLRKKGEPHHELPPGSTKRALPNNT

Chain of BCL-xL (Q07817 whole entry): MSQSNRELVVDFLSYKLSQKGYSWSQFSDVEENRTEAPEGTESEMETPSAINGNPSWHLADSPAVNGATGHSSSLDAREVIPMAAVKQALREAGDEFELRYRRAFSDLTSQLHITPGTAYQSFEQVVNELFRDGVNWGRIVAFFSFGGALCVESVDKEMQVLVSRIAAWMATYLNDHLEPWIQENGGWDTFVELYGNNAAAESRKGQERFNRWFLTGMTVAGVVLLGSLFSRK
Chain of p53 (Homo sapiens) (P04637 whole entry): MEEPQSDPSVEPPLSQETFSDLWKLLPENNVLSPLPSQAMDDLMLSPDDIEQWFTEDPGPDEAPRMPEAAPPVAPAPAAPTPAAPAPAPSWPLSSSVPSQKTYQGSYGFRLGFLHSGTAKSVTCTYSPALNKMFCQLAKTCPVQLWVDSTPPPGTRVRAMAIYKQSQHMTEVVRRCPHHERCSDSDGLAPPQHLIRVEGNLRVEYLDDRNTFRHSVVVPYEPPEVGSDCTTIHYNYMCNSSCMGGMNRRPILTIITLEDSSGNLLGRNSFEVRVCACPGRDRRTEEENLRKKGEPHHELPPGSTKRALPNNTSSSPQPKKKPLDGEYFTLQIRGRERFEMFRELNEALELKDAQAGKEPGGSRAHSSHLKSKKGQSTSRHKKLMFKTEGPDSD

With BCL-xL (from UniProt Q07817), the Kd in series [1] was 1 µM; in series [2] it was 17 µM.

In general, Kd refers to a measure of binding affinity in units of concentration.
